Results: patent publication US8431396B2, “Anti-angiogenic peptides” (The Cleveland Clinic Foundation, priority 2003, dated 2013)

Legend:
ERK1 and ERK2 = ERK1 and ERK2 phosphorylation (immunoblot); assay type: cell-based; conditions: recombinant TIMP3
Description: PDGF-BB-mediated phosphorylation was examined similarly in PAESPDGFR-β cells (anti-PDGFR-β; top right panel). […] PDGF-BB-mediated phosphorylation of PDGFR-β in PAE-PDGFR-β cells overexpressing TIMP3 (top right). KDR protein or PDGFR-β protein was analyzed by both immunoprecipitation and immunoblotting with antibodies specific for KDR (left) or for PDGFR-β (right; A and B, second panels from top). […] Total protein levels of ERK were determined by immunoblotting with antibodies specific for ERK1/2 (anti-ERK1/2; A and B, bottom).
Cell fractions, prepared as described earlier, or immunoprecipitates of the lysates with the indicated antibodies, were subjected to SDS-PAGE. Proteins were detected with horseradish peroxidase-conjugated antibodies specific for either rabbit or mouse IgG (Amersham Pharmacia, Piscataway, N.J.) followed by enhanced chemiluminescence.

KDR = molecular target: T1, KDR (Homo sapiens, UniProt P35968); assay: VEGF-stimulated KDR tyrosine phosphorylation in membrane fractions (Western blot); assay type: cell-based; conditions: WT-TIMP3 cells; data not shown
T1 construct: To determine whether these receptor isoforms represent full-length VEGFR-2; expressed in transfected cells; host or cells: porcine aortic endothelial (PAE) cells
T1 sequence (P35968 20-1356): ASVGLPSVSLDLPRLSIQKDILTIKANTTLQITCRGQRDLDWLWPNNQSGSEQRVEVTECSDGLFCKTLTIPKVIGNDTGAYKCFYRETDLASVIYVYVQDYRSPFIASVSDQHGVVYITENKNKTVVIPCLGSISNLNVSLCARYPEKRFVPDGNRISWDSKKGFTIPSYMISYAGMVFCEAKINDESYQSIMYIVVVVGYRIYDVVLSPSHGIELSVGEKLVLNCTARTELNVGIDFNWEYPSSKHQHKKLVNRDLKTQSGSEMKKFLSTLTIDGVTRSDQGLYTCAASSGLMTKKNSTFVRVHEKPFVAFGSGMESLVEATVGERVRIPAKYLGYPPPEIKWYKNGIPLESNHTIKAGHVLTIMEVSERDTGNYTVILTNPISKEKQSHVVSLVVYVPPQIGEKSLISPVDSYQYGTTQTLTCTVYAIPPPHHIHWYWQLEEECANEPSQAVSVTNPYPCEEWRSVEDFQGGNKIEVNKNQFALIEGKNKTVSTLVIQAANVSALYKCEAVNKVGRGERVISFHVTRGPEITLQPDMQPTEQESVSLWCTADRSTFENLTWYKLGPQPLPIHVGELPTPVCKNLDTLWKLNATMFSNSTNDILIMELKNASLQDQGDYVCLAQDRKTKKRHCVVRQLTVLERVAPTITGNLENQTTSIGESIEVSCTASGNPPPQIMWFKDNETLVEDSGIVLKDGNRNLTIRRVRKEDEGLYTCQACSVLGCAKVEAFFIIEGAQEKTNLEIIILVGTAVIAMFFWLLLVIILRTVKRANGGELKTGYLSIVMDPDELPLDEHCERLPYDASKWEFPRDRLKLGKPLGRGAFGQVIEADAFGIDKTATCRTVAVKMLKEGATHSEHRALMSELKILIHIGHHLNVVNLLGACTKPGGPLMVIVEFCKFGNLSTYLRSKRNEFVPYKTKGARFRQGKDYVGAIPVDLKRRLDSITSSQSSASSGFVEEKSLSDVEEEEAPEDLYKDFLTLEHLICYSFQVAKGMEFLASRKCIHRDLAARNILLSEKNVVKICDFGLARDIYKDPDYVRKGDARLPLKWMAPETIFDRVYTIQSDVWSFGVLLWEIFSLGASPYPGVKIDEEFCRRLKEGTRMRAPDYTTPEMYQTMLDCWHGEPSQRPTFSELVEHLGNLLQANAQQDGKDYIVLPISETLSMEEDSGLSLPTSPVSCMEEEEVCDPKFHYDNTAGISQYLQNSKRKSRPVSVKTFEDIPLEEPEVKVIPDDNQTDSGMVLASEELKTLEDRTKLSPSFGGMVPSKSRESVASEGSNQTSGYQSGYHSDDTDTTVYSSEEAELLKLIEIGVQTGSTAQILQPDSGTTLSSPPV
Description: 2 day serum free conditioned medium (CM) was collected from subconfluent cells cultured on six-well plates (Costar). In some cases the CM was further concentrated with heparin-agarose gels (Bio-rad). The cell monolayer was dislodged from the culture plates following a 10 min incubation in Ca2+, Mg2+ free phosphate buffered saline (PBS) containing 2.5 mM EDTA. After several rinses in PBS and water, the ECM was scraped in a small volume of electrophoresis sample buffer without reducing agent for analyses. Plasma membrane (PM) fractions were prepared from cells centrifuged at 500 g and 4° C. for 5 min The supernatant was discarded and the cell pellets were resuspended in PBS containing protease inhibitors, lysed with a 26-gauge syringe needle, and centrifuged at 3,000 g at 4° C. for 15 minutes. The supernatant was centrifuged at […] at 4° C. for 1 hr. The PM pellets were suspended in lysis buffer containing protease inhibitors. In some instances the membrane fraction of cells was prepared using ProteoExtract Subcellular Proteome Extaction Kit (EMD Biosciences, Inc).
Cell fractions or immunoprecipitates of the lysates with the indicated antibodies were subjected to SDS-PAGE. Proteins were detected with either a HRP-conjugated anti-rabbit or anti mouse IgG antibody (Amersham Pharmacia Biotech., Piscataway, N.J.) followed by ECL. […]

PDGFR-β = molecular target: T2, PDGFR-β (Homo sapiens, UniProt P09619); assay: [125I]PDGF-BB binding to PAE-PDGFR-β cells; conditions: recombinant TIMP3 or overexpression
T2 construct: expressed in transfected cells; host or cells: porcine aortic endothelial (PAE) cells
T2 sequence (P09619 33-1106, species assumed): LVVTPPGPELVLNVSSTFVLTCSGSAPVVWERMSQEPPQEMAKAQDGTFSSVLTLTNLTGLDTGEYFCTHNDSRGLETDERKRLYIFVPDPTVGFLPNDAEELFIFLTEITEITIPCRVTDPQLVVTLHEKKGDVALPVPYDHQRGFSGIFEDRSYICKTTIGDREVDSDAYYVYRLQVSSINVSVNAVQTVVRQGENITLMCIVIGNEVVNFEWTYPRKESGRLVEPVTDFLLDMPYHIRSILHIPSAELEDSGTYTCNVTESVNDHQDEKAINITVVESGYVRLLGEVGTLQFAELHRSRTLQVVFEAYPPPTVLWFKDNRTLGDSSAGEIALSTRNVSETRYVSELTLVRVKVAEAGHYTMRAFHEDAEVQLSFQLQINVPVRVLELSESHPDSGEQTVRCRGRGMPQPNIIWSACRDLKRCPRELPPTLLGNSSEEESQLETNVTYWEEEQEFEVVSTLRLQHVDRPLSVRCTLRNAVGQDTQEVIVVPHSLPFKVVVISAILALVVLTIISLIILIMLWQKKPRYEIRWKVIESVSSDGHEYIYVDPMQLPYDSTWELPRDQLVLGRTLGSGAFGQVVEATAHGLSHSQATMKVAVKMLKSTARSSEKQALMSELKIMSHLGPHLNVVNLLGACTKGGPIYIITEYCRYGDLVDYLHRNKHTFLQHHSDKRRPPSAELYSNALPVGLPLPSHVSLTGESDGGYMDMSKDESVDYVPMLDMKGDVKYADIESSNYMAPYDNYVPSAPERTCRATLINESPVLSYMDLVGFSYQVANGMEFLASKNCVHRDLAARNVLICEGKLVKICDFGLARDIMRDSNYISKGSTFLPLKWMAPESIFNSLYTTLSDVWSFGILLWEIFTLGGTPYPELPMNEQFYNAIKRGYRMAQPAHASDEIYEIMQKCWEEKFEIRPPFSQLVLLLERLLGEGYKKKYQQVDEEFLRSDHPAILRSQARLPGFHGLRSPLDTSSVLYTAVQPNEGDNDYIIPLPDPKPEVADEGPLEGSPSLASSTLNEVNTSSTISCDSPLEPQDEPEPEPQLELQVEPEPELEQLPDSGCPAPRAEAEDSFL
Description: Radioligand binding is expressed as percent binding and is the mean±s.e.m. of triplicate samples. […] All values are expressed as mean±s.e.m. of triplicate samples. […] Binding is expressed as mean±s.e.m.
Data were analyzed by Scatchard plot analyses.

PAE-PDGFR-β cells = assay: Endothelial cell proliferation in response to PDGF-BB; assay type: cell-based, porcine; conditions: recombinant TIMP3 (1 and 5 μg/ml) or overexpression
PAE-KDR cells [1] = assay: Endothelial cell proliferation in response to VEGF165 and VEGF121; assay type: cell-based, porcine
Description: (A) Proliferative response of PAE-KDR cells to VEGF165 (5 ng/ml; left) and VEGF121 (30 ng/ml; right). […] (C) DNA synthesis of endothelial cells in response to VEGF165. […] [3H]thymidine incorporation was measured during the last 5 h of incubation. (D) Analysis of endothelial cell expressing TIMP3. […] Expression of TIMP3 protein was determined by immunoblotting with antibody against TIMP3 (top left). MMP-inhibitory activity was determined by reverse zymography (top right). Corresponding densito-metric quantitation is expressed as arbitrary optical density (OD) units±s.d. (C) DNA synthesis in adenovirus-infected cells in response to VEGF. […] In all proliferation experiments, total number of cells was counted at 48 h. Proliferating cell number is expressed as means±s.e.m. of quadruplicate samples. DNA synthesis data represent the means±s.e.m. of triplicate samples; similar results were obtained in at least 2 different experiments. *, P<0.01.
(§1) A modified Boyden chamber assay for migration and proliferation assays were carried out as described.

PAE-KDR cells [2] = assay: Endothelial cell migration toward VEGF (modified Boyden chamber); assay type: cell-based, porcine
Description: (B) Comparison of the effects of rTIMP3, rTIMP1 and BB3103 on VEGF165-induced migration of PAE-KDR cells. […] In all migration experiments, migrating cell number is expressed as mean±s.e.m. of quadruplicate samples. All experiments were done in triplicate. Open symbols, KDR-vector; closed symbols, KDR-TIMP3.*, P<0.01; **, P<0.05.
as §1

endothelial cells = assay: Competitive displacement of [125I]TIMP3 from the surface of endothelial cells; assay type: binding; conditions: unlabeled VEGF 2 μg/ml, TIMP3 10 μg/ml
Description: Immunoprecipitation of cell lysates with antibodies specific for TIMP3 was followed by immunoblotting with antibodies specific for KDR (top). As a control for KDR receptor, cell lysates were immunoprecipitated with anti-bodies specific for KDR and probed with antibodies specific for KDR Immunoprecipitation with antibodies specific for KDR and immunoblotting with antibodies specific for TIMP3 (bottom) were carried out on PAE-KDR cells exposed to recombinant TIMP3 or PAE-KDR-vector and PAE-KDR cells overexpressing TIMP3, to confirm the interaction. […] Competition with unlabeled TIMP3 was carried out to ensure specificity. […] (E) In vivo interaction of KDR and TIMP3 in human placenta. Immunoprecipitation using antibodies specific TIMP3 (top) and KDR (bottom) was followed by immunoblotting with antibodies specific for KDR (top) and TIMP3 (bottom).

VEGFR-2 (KDR) = molecular target: T3, VEGFR-2 (KDR) (Homo sapiens, UniProt P35968); assay: [125I]VEGF binding in transfected PAEKDR cell lines; conditions: PAEKDR cells expressing WT-TIMP3
T3 construct: To determine whether these receptor isoforms represent full-length VEGFR-2; expressed in transfected cells; host or cells: porcine aortic endothelial (PAE) cells
T3 sequence (P35968 20-1356): as the sequence (P35968 20-1356) above
Description: PAEKDR cells were transfected with TIMP3 cDNA or empty vector using Lipofectamine reagent (Gibco-BRL Rockville, Md.). Stable clones were isolated using Hygromycin selection.
After washing, the cell monolayers were solubilized with lysis buffer (20 mM Tris HCl pH 7.5, 1% triton X 100 and 10% glycerol), and the radioactivity measured in a gamma counter.

B1: TIMP3: tissue inhibitor of metalloproteinases-3; recombinant human form expressed in NSO myeloma cells, or wild-type expressed in transfected cells (protein, listed as Homo sapiens)
chain: MTPWLGLIVLLGSWSLGDWGAEACTCSPSHPQDAFCNSDIVIRAKVVGKKLVKEGPFGTLVYTIKQMKMYRGFTKMPHVQYIHTEASESLCGLKLEVNKYQYLLTGRVYDGKMYTGLCNFVERWDQLTLSQRKGLNYRYHLGCNCKIKSCYYLPCFVTSKNECLWTDMLSNFGYPGYQSKHYACIRQKGGYCSWYRGWAPPDKSIINATDP
downstream phosphorylation of ERK1 and ERK2 in response to VEGF (ERK1 and ERK2): inhibited in response to VEGF
receptor autophosphorylation after VEGF stimulation (KDR): no receptor autophosphorylation was seen
inhibition of PDGF-BB binding to PAE-PDGFR-β cells (PDGFR-β): Neither recombinant TIMP3 nor overexpression of TIMP3 could inhibit binding of PDGF-BB
effect on proliferative response to PDGF-BB (PAE-PDGFR-β cells): Neither recombinant TIMP3 nor TIMP3 overexpression affected the proliferative response
inhibition of proliferative response to VEGF165 and VEGF121 (PAE-KDR cells [1]; added exogenously at 0.3-1 μg/ml): inhibited the proliferative response
proliferative response to VEGF165 and VEGF121 (PAE-KDR cells [1]; over-expression of TIMP3 in endothelial cells): attenuation of the proliferative response
dose required to block the biological responses of in vivo angiogenesis, endothelial cell proliferation and migration (PAE-KDR cells [1]; summary over CAM, proliferation and migration assays): 0.3-3 μg/ml
inhibition of endothelial cell migration toward VEGF (PAE-KDR cells [2]; added exogenously, VEGF165 10 ng/ml): inhibited their migration toward VEGF in a dose-dependent manner
dose giving complete inhibition of migration toward VEGF (PAE-KDR cells [2]; recombinant protein added exogenously): 3 µg/mL
chemotactic response to VEGF121 and VEGF165 (PAE-KDR cells [2]; stable expression of TIMP3 in the endothelial cells): attenuation of the chemotactic response
inhibition of binding of labeled TIMP3 to the surface of endothelial cells (endothelial cells): could inhibit the binding of labeled TIMP3
effect on binding of [125I] VEGF to KDR (VEGFR-2 (KDR)): dramatically inhibited the binding
